Drawing on publication PMC9637899, this text covers response for 2 variants.

To fix the notation:
B1: activated C1s–CCP1–CCP2–SP [human] / ElpB_(182–378) [B. burgdorferi] (parent)
chain 1: MPCPKEDTPNSVWEPAKAKYVFRDVVQITCLDGFEVVEGRVGATSFYSTCQSNGKWSNSKLKCQPVDCGIPESIENGKVEDPESTLFGSVIRYTCEEPYYYMENGGGGEYHCAGNGSWVNEVLGPELPKCVPVCGVPREPFEEKQRIIGGSDADIKNFPWQVFFDNPWAGGALINEYWVLTAAHVVEGNREPTMYVGSTSVQTSRLAKSKMLTPEHVFIHPGWKLLEVPEGRTNFDNDIALVRLKDPVKMGPTVSPICLPGTSSDYNLMDGDLGLISGWGRTEKRDRAVRLKAARLPVAPLRKCKEVKVEKPTADAEAYVFTPNMICAGGEKGMDSCKGDSGGAFAVQDPNDKTKFYAAGLVSWGPQCGTYGLYTRVKNYVDWIMKTMQENSTPRED
chain 2: QERKAKAEKEAKEKAERQKQEEQQKRKAEKEREEQRKEAEKRQVDNEIRTLTGKIDEINRNIDVIKEQTSVGAQGVIDRITGPVYDDFTDGNKAIYKTWGDLEDDNDEGLGKLLKELSDTRHNLRTKLNEGNKAYIIDTRSTEPQLKENVSVSEIKSDLDELKSKLEEVKEYLEDKDNFEEIKEYVAGSEDNYDEED

In this assay the parent is B1. Briefly: SPR. To be noted: with ElpB_(182–378) [B. burgdorferi]; steady-state response at the highest analyte concentration plotted (about 5e-7 M on the x axis); ElpB182-378 immobilized, C1s construct injected; parent: 79; read off a plot.
Regarding chain 1 K284A R285A R290A K292A, the response is 7 RU.
With chain 1 E35A D67A K284A R285A R290A K292A the figure was 0 RU.
